Laboratory results: patent US20070275049A1

Key:
[1] = biological target: EGFR-derived peptide(s) on MHC class I (H-2Kb/H-2Db) of EGFR-positive LL/2c tumor cells (mouse)
[2] = biological target: EGFR-derived peptide(s) on MHC class I of EGFR-positive MA782/5S tumor cells (mouse)

spleen T cells of mice immunized by chEGFR molecular vaccine (cells without a defined receptor)
specific cytocidal activity, standard Cr51 test, at the ratio of 40:1 [1]: 40.3% | specific cytocidal activity, standard Cr51 test, at the ratio of 40:1 [2]: 42.8%
